The values that follow come from patent publication US20250115668A1 (BIOCYTOGEN PHARMACEUTICALS BEIJING, published 2025).

In assay [1] the target is T1, Human OX40 protein having a His-Tag (human, UniProt P43489 29-216, limits assumed).
T1 construct: Bought recombinant protein; also called hOX40-His; hOX40; not shown: His tag
T1 sequence (looked up): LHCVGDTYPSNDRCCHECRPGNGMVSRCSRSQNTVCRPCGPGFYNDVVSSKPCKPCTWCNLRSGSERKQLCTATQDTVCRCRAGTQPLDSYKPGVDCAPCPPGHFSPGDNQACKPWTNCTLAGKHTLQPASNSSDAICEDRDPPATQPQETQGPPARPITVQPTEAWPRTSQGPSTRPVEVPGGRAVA
The experiment in a line: SPR Biacore 8K, Protein A chip; antibody captured, antigen analyte.

In assay [2] the target is T2, human OX40 expressed on transfected cells (human, UniProt P43489 29-277).
T2 construct: whole, on cells; also called hOX40 on HEK293T-hCTLA4-hOX40 cells; on Jurkat-luc-hOX40
T2 sequence (looked up): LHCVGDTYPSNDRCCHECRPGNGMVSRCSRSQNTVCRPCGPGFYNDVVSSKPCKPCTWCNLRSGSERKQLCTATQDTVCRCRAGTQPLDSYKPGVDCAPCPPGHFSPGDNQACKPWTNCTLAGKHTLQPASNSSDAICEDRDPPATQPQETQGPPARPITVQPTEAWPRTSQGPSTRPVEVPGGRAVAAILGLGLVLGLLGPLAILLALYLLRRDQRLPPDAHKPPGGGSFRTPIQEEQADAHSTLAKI
The experiment in a line: flow cytometry (MFI, anti-hIgG-Fc-Alexa Fluor 647) on HEK293T-hCTLA4-hOX40 cells co-expressing human CTLA4 and human OX40. (A flow cytometer gives signals particle by particle.)

Assay [3] deals with T3, Human CTLA4 protein having a His-Tag (human, UniProt P16410 37-162, limits assumed).
T3 construct: Bought recombinant protein; also called hCTLA4-His; hCTLA4; not shown: His tag
T3 sequence (looked up): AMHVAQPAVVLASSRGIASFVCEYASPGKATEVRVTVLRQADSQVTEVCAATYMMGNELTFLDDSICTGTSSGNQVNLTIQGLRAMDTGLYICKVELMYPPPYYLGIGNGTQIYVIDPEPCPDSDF
The experiment in a line: SPR Biacore 8K, Protein A chip; antibody captured, antigen analyte. (SPR reads the build-up and loss of mass on a sensor chip optically.)

Assay [4] addresses T1, Human OX40 protein having a His-Tag. The description is as above. The source holds these as a separate data set.
Assay [5] addresses T4, Cynomolgus/Rhesus macaque OX40/TNFRSF4/CD134 Protein, His Tag (Cynomolgus/Rhesus macaque).
T4 construct: Bought recombinant protein; also called fasOX40-His; monkey OX40
Described as above.

Assay [6] deals with T5, Cynomolgus/Rhesus macaque CTLA-4 Protein, His Tag (Cynomolgus/Rhesus macaque).
T5 construct: Bought recombinant protein; also called fasCTLA4-His; FasCTLA4-His
The assay is described as above.

Assay [7] concerns the target T3, Human CTLA4 protein having a His-Tag. Described as above. The source holds these as a separate data set.

Where two headings read alike, the source gives them in different places.

B1: OX-1F9-IgG1 (antibody, V domains shown)
VH: EVQLVESGGGLVQPGGSLRLSCAASGFTFSNYEMNWVRQAPGKGLEWISYIGSSGSTIYYADSVKGRFTISRDNAKNSLYLQMNSLRAEDTAVYYCAVDYIFDYWGQGTLVTVSS
VL: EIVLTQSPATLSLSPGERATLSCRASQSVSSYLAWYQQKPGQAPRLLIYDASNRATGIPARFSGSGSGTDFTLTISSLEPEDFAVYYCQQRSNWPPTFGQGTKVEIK
notes: Human anti-OX40 antibody from RenLite mice
The Kd is a measure of binding affinity in units of concentration. Low readings indicate tighter binding, high ones weaker binding. What is called koff is a measure of how fast the partners let go of each other. A higher koff goes with a short-lived complex. Usually kon stands for a measure of how fast the partners come together. A low value points to slow association. Turning to B1, in assay [1], the Kd turned out to be 22.6 nM, the koff came to 0.00744 s⁻¹ and the on-rate (kon) amounted to 330000 M⁻¹ s⁻¹.

B2: OX-H7-IgG1 (antibody, V domains shown)
VH: QITLKESGPTLVKPAQTLTLTCTFSGFSLSTSGVGVGWIRQPPGKALEWLALIYWDDDKLYSPSLKSRLTITKDTSKNQVVLAMTNMDPVDTATYYCAHSQLGRDDYWGQGTLVTVSS
VL: EIVLTQSPATLCLSPGERATLSCRASQSVSNYLAWYQQKPGQAPRLLIYAASSRATGIPARFSGSGSGTDFTLTISTLEPEDFAVYYCQQRRDWPPTFGQGTKVEIK
notes: Monoclonal anti-OX40 antibody, IgG1 constant regions; also called 040-H7-IgG1
As usually defined, the EC50 (read off the curve) is the concentration that produces a half-maximal response. A low value points to a more potent agent. Regarding B2, the “EC50 (read off the curve)” value in assay [2] is roughly 5 µg/mL. In assay [1], the affinity, expressed as Kd, was 13.8 nM; the koff was determined as 0.00824 s⁻¹; the kon is 598000 M⁻¹ s⁻¹.

B3: CT-5E3-IgG1 (antibody, V domains shown)
VH: QVQLVESGPGLVKPSETLSLTCTVSGGSISSSSYYWGWIRQPPGKGLEWIGSIYYTGNTYYNPSLKSRVTISVDTSKNQFSLKLSSVTAADTAVYYCARVGFSYGHPFDYWGQGTLVTVSS
VL: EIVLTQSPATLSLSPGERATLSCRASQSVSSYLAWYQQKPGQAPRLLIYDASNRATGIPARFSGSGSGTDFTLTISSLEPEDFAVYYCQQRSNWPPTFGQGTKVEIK
notes: Human anti-CTLA4 antibody; IgG1 constant regions
B3: in assay [3], the Kd turned out to be 21.8 nM, the koff was 0.000674 s⁻¹ and the kon is 30900 M⁻¹ s⁻¹.

B4: CT-5F9-IgG1 (antibody, V domains shown)
VH: QVQLVESGPGLLKPSETLSLTCTVSGGSISSSSSYWGWIRQPPGKGLEWIGSIYYSGITYYNPSLKSRVTISVDTSKNQFSLKVSSVTAADTAVYYCARLNWNQVFDYWGQGTLVTVSS
VL: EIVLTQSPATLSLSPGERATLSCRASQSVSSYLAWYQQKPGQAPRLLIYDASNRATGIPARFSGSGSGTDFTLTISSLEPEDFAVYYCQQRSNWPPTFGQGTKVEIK
notes: as for B3
In assay [3], B4 gave a Kd of 7.48 nM, a koff of 0.00123 s⁻¹ and a kon of 164000 M⁻¹ s⁻¹.

B5: OX-2F5-CT-3D2-IgG1-SI (bispecific antibody, V domains shown)
VH 1: QVQLVESGPTLVKPTQTLTLTCTFSGFSLSTSGVGVGWIRQSPGKALEWLSLIYWDDDKRYNPSLKSRLTVTKDTSKNQVVLAMTNMDPVDTATYFCAHRAHSSSSSDYWGQGTLVTVSS
VH 2: QVQLVESGPGLVKPSETLSLTCTVSGDSIRSSHYYWGWIRQPPGKGLEWIGSIYFNGITYYSPSLKSRVTISVDTSKNQFSLKLTSVTAADTAVFYCARHNNYYDSSGYWYYFDYWGQGTLVTVSS
VL: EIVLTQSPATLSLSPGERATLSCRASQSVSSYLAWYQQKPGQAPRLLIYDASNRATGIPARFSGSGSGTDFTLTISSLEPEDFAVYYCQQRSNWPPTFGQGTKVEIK
notes: 1+1 knobs-into-holes human IgG1 with common light chain; SI mutations (S239D, I332E, EU)
B5: in assay [4], binding was put at a Kd of 69.6 nM, the koff was 0.00947 s⁻¹ and the kon amounted to 136000 M⁻¹ s⁻¹. For the same molecule, in assay [5], the Kd was 30.4 nM, the koff came to 0.0257 s⁻¹ and the kon is 845000 M⁻¹ s⁻¹.

B6: OX-1F9-CT-3D2-IgG1-SI (bispecific antibody, V domains shown)
VH 1: EVQLVESGGGLVQPGGSLRLSCAASGFTFSNYEMNWVRQAPGKGLEWISYIGSSGSTIYYADSVKGRFTISRDNAKNSLYLQMNSLRAEDTAVYYCAVDYIFDYWGQGTLVTVSS
VH 2: QVQLVESGPGLVKPSETLSLTCTVSGDSIRSSHYYWGWIRQPPGKGLEWIGSIYFNGITYYSPSLKSRVTISVDTSKNQFSLKLTSVTAADTAVFYCARHNNYYDSSGYWYYFDYWGQGTLVTVSS
VL: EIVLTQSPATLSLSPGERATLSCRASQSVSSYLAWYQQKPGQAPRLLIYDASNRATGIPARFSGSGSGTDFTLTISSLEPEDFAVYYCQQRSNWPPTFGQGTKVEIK
notes: as for B5
In assay [4], B6 registered a Kd of 22.8 nM, a koff of 0.00698 s⁻¹ and a kon of 306000 M⁻¹ s⁻¹. Besides, in assay [5], binding was put at a Kd of 2.48 nM, the koff was 0.000371 s⁻¹ and the kon is 150000 M⁻¹ s⁻¹.

B7: OX-2F2-CT-3D2-IgG1-SI (bispecific antibody, V domains shown)
VH 1: QVQLVESGGGLVQPGGSLRLSCAASGFTVSNNYMSWVRQAPGKGLEWVSVIYGGGDTYYADSVKGRFTISRDNSQNTLYLQMTSLRADDTAVYYCARGLTIFGVVPFDPWGQGTLVTVSS
VH 2: QVQLVESGPGLVKPSETLSLTCTVSGDSIRSSHYYWGWIRQPPGKGLEWIGSIYFNGITYYSPSLKSRVTISVDTSKNQFSLKLTSVTAADTAVFYCARHNNYYDSSGYWYYFDYWGQGTLVTVSS
VL: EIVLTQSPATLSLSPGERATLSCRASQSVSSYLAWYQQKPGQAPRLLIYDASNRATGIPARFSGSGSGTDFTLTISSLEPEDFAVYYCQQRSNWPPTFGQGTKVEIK
notes: as for B5
On to B7, for which, in assay [6], the Kd worked out at 4.77 nM, the koff came out at 0.000612 s⁻¹ and the kon stood at 128000 M⁻¹ s⁻¹. In assay [7], the Kd stood at 14.2 nM, the koff turned out to be 0.000774 s⁻¹ and the kon came out at 54600 M⁻¹ s⁻¹.

B8: OX-2F5-IgG1 (antibody, V domains shown)
VH: QVQLVESGPTLVKPTQTLTLTCTFSGFSLSTSGVGVGWIRQSPGKALEWLSLIYWDDDKRYNPSLKSRLTVTKDTSKNQVVLAMTNMDPVDTATYFCAHRAHSSSSSDYWGQGTLVTVSS
VL: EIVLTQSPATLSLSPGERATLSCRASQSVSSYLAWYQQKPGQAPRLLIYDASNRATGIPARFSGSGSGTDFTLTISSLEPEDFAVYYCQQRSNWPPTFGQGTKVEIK
notes: Human anti-OX40 antibody; IgG1 constant regions
In assay [1], B8 yielded a Kd of 45.6 nM, a koff of 0.0343 s⁻¹ and a kon of 753000 M⁻¹ s⁻¹.

B9: OX-2C11-IgG1 (antibody, V domains shown)
VH: EVQLVQSGGGLVKPGGSLRLSCAASGFTFSDSYMSWIRQAPGKGLEWISYISSSISYTKYADSVKGRFTISRDNAKNSLYLEMNSLRAEDTAVYYCARDYYDSGNYYYYFDYWGQGTLVTVSS
VL: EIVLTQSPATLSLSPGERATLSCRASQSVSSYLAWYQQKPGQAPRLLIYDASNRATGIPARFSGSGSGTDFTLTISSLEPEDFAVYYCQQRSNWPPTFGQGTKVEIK
notes: as for B8
In assay [1], B9 displayed a Kd of 7.59 nM, a koff of 0.000412 s⁻¹ and a kon of 54400 M⁻¹ s⁻¹.

B10: OX-2C11-CT-4E12-IgG1-SI (bispecific antibody, V domains shown)
VH 1: EVQLVQSGGGLVKPGGSLRLSCAASGFTFSDSYMSWIRQAPGKGLEWISYISSSISYTKYADSVKGRFTISRDNAKNSLYLEMNSLRAEDTAVYYCARDYYDSGNYYYYFDYWGQGTLVTVSS
VH 2: QVQLVESGPGLVKPSETLSLTCAVSGGSISSSSYYWGWIRQPPGKGLEWIGNIYYTGITYYNPSLKSRITISVDTSKNQFSLKLSSVTAADTAVYYCARVGGYSYGYLFDYWGQGTLVTVSS
VL: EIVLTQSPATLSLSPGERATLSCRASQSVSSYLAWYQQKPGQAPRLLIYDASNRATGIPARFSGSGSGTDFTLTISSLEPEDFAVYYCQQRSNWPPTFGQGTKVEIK
notes: 1+1 knobs-into-holes human IgG1 with common light chain; SI mutations (S239D, I332E, EU) in Fc
On to B10, for which the Kd was found to be 11.2 nM in assay [6], 10.2 nM in assay [7], 16.7 nM in assay [4] and 37 nM in assay [5]. Also, the koff in assay [6] stood at 0.000422 s⁻¹; in assay [7] it was 0.00023 s⁻¹; in assay [4], 0.000626 s⁻¹; in assay [5], 0.000685 s⁻¹. Besides, the kon in assay [6] came to 37800 M⁻¹ s⁻¹; in assay [7] it was 22400 M⁻¹ s⁻¹; in assay [4], 37500 M⁻¹ s⁻¹; in assay [5] it was 18500 M⁻¹ s⁻¹.

B11: CT-4E12-IgG1 (antibody, V domains shown)
VH: QVQLVESGPGLVKPSETLSLTCAVSGGSISSSSYYWGWIRQPPGKGLEWIGNIYYTGITYYNPSLKSRITISVDTSKNQFSLKLSSVTAADTAVYYCARVGGYSYGYLFDYWGQGTLVTVSS
VL: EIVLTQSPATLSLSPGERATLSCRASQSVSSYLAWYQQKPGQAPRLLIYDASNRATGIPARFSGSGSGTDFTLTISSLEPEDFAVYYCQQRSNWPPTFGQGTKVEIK
notes: as for B3
With B11, in assay [3], the Kd is 17 nM, the koff was 0.000422 s⁻¹ and the kon worked out at 24800 M⁻¹ s⁻¹.

B12: OX-2F2-IgG1 (antibody, V domains shown)
VH: QVQLVESGGGLVQPGGSLRLSCAASGFTVSNNYMSWVRQAPGKGLEWVSVIYGGGDTYYADSVKGRFTISRDNSQNTLYLQMTSLRADDTAVYYCARGLTIFGVVPFDPWGQGTLVTVSS
VL: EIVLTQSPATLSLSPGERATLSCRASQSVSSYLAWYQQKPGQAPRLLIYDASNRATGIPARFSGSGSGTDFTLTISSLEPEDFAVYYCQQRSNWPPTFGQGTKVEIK
notes: as for B8
Take B12: in assay [1], the Kd came to 20 nM, the koff was determined as 0.0217 s⁻¹ and the kon came out at 1.09e+06 M⁻¹ s⁻¹.

B13: CT-5E3-OX-2F2-IgG1-SI (bispecific antibody, V domains shown)
VH 1: QVQLVESGPGLVKPSETLSLTCTVSGGSISSSSYYWGWIRQPPGKGLEWIGSIYYTGNTYYNPSLKSRVTISVDTSKNQFSLKLSSVTAADTAVYYCARVGFSYGHPFDYWGQGTLVTVSS
VH 2: QVQLVESGGGLVQPGGSLRLSCAASGFTVSNNYMSWVRQAPGKGLEWVSVIYGGGDTYYADSVKGRFTISRDNSQNTLYLQMTSLRADDTAVYYCARGLTIFGVVPFDPWGQGTLVTVSS
VL: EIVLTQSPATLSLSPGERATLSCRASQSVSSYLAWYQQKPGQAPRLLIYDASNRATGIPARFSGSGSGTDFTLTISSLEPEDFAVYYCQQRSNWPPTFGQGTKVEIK
notes: as for B5
As for B13, the Kd in assay [6] was 8.36 nM; in assay [7] it was 27.8 nM; in assay [4], 50.2 nM; in assay [5] it was 4.91 nM. Further, the koff worked out at 0.00105 s⁻¹ in assay [6], 0.000909 s⁻¹ in assay [7], 0.0136 s⁻¹ in assay [4] and 0.000205 s⁻¹ in assay [5]. The kon in assay [6] was 126000 M⁻¹ s⁻¹; in assay [7], 32700 M⁻¹ s⁻¹; in assay [4], 270000 M⁻¹ s⁻¹; in assay [5], 41800 M⁻¹ s⁻¹.
